# Target: the molecule itself
# Assay: cryo-EM structure
protein,measurement,value
"Human ASCT2 (Alanine-Serine-Cysteine Transporter 2, SLC1A5) (natural protein) MVADPPRDSKGLAAAEPTANGGLALASIEDQGAAAGGYCGSRDQVRRCLRANLLVLLTVVAVVAGVALGLGVSGAGGALALGPERLSAFVFPGELLLRLLRMIILPLVVCSLIGGAASLDPGALGRLGAWALLFFLVTTLLASALGVGLALALQPGAASAAINASVGAAGSAENAPSKEVLDSFLDLARNIFPSNLVSAAFRSYSTTYEERNITGTRVKVPVGQEVEGMNILGLVVFAIVFGVALRKLGPEGELLIRFFNSFNEATMVLVSWIMWYAPVGIMFLVAGKIVEMEDVGLLFARLGKYILCCLLGHAIHGLLVLPLIYFLFTRKNPYRFLWGIVTPLATAFGTSSSSATLPLMMKCVEENNGVAKHISRFILPIGATVNMDGAALFQCVAAVFIAQLSQQSLDFVKIITILVTATASSVGAAGIPAGGVLTLAIILEAVNLPVDHISLILAVDWLVDRSCTVLNVEGDALGAGLLQNYVDRTESRSTEPELIQVKSELPLDPLPVPTEEGNPLLKHYRGPAGDATVASEKESVM",stoichiometry N,3

# — article doi:10.1101/2020.05.29.124305 (bioRxiv, 2020)
